Assay results as given in publication PMC9525694.

Molecular target: T1, Bak (human (endogenous in HeLa)), Q16611
T1 chain: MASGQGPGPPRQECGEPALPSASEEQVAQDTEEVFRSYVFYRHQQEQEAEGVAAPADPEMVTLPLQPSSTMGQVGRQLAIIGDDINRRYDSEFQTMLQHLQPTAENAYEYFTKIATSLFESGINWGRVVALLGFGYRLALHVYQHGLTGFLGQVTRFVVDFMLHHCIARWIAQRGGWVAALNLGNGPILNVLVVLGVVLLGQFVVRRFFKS
Experiment: native gel or EMSA; BN-PAGE (6-16.5% gradient, 4 °C) of mitochondria from uninfected HeLa cells incubated with recombinant tBid for 30 min, lysed in 1% digitonin; Western blot for Bak
Conditions: remark: other sources report otherwise

stoichiometry N: 2
B1: Bak, Q16611 1-211 (natural protein)
chain: T1 chain
